This is an account of results in patent US20250382373A1 (BIOCYTOGEN PHARMACEUTICALS BEIJING, published 2025).

The chains are these.
B1: M-2F11 (antibody, V domains shown)
VH: EVQLVESGPGLVKPSETLSLTCTVSGGSISSNYWSWIRQPPGKGLEWIGYIYHSGSTNYNPSLKSRVTISVDTSKNQFSLKLSSVTAADTAVYFCARGPVSIFGVVKYIDLWGRGTLVTVSS
VL: not shown
B2: M-1E9 (antibody, V domains shown)
VH: QVQLQQWGAGLLKPSETLSLTCVVFGGSFSGYYWSWIRQPPGKGLEWIGEINHSGSTNYNPSLKSRVTVSVDTSKKQFSLNLRSVTAADTAVYYCARGRGIAAAGTYFDYWGQGNLVTVSS
VL: not shown
B3: M-2G10 (antibody, V domains shown)
VH: EVQLVESGGGVVQPGRSLRLSCAASGFTFNICGIHWVRQAPGKGLEWVATISHDANDKYYADSVKGRFTISRDNSKNTLYLQMNSLRAEDTAVYYCARDGNRGYDGYFDYWGQGTLVTVSS
VL: not shown
B4: M-6E6 (antibody, V domains shown)
VH: QVQLEQSGPTLVKPTQTLTLTCTFSGFSLSSTGVAMGWIRQPPGKALEWLALIYWDDDKHYSPSLESRLTITKDTFKNQVVLSMTNMDPLDTATYYCTHRRYTGYEDYWGQGILVTVSS
VL: not shown
B5: M-7D3 (antibody, V domains shown)
VH: QVQLVQSGLTLVKPTQTLTLTCTFSGFSLSTTGVSVGWIRQPPGKALEWLALIYWDDDKHYSPSLKSRLTITKDTSKNQVVLTMTNMDPVDTATYYCAPGGYSSGWPGFYDLWGRGTLVTVSS
VL: not shown
B6: M-8E2 (antibody, V domains shown)
VH: QVQLVQSGPALVKPTQTLTLTCTFSGFSLYTSGVAVAWIRQPPGKALEWLALIYWDDDKWYTPSLKTRLSITKDTSKNQVVLTMTNMDPVDTATYYCAHRGSFNWNYGYFDYWGQGTLVTVSS
VL: not shown
B7: Telisotuzumab analog (antibody, human IgG1, kappa, V domains shown)
VH: QVQLVQSGAEVKKPGASVKVSCKASGYIFTAYTMHWVRQAPGQGLEWMGWIKPNNGLANYAQKFQGRVTMTRDTSISTAYMELSRLRSDDTAVYYCARSEITTEFDYWGQGTLVTVSS
VL: DIVMTQSPDSLAVSLGERATINCKSSESVDSYANSFLHWYQQKPGQPPKLLIYRASTRESGVPDRFSGSGSGTDFTLTISSLQAEDVAVYYCQQSKEDPLTFGGGTKVEIKR
notes: Humanized IgG1 against MET
B8: M-6D12 (antibody, V domains shown)
VH: QVQLQQSGPGLVKPSGTLSLTCAVSGGSISKSNWWTWVRQPPGKGLEWIGEIHHSGSTNYNPSLKSRVTISVEKTKNQFSLKLSSVTAADTAVYYCARGGGYGYDFDYWGQGTLVTVSS
VL: not shown
B9: M-8H10 (antibody, V domains shown)
VH: QVQLQQWGAGLLKPSETLSLTCAVYGGSFSGYYWTWIRQPPGKGLEWIGESNHGGSTNFNPSLKSRVTISVDTSKNHFSLKLSPVTAADTAVYYCTRGGTIFGLKDAFDIWGQGTMVTVSS
VL: not shown
B10: M-2F12 (antibody, V domains shown)
VH: QVQLVQSGGGVVQPGRSLRLSCAASGFTFNNYGMDWVRQAPGKGLEWVAVIWNDGSKKYYGDFVKGRFTISRDNSKNTLYLEMNSLRAEDTAVYYCARDLEGGQLADAFDVWGQGTMVTVSS
VL: not shown

human MET on hMET-NIH3T3 cells, sequence (P08581 25-1390 limits assumed): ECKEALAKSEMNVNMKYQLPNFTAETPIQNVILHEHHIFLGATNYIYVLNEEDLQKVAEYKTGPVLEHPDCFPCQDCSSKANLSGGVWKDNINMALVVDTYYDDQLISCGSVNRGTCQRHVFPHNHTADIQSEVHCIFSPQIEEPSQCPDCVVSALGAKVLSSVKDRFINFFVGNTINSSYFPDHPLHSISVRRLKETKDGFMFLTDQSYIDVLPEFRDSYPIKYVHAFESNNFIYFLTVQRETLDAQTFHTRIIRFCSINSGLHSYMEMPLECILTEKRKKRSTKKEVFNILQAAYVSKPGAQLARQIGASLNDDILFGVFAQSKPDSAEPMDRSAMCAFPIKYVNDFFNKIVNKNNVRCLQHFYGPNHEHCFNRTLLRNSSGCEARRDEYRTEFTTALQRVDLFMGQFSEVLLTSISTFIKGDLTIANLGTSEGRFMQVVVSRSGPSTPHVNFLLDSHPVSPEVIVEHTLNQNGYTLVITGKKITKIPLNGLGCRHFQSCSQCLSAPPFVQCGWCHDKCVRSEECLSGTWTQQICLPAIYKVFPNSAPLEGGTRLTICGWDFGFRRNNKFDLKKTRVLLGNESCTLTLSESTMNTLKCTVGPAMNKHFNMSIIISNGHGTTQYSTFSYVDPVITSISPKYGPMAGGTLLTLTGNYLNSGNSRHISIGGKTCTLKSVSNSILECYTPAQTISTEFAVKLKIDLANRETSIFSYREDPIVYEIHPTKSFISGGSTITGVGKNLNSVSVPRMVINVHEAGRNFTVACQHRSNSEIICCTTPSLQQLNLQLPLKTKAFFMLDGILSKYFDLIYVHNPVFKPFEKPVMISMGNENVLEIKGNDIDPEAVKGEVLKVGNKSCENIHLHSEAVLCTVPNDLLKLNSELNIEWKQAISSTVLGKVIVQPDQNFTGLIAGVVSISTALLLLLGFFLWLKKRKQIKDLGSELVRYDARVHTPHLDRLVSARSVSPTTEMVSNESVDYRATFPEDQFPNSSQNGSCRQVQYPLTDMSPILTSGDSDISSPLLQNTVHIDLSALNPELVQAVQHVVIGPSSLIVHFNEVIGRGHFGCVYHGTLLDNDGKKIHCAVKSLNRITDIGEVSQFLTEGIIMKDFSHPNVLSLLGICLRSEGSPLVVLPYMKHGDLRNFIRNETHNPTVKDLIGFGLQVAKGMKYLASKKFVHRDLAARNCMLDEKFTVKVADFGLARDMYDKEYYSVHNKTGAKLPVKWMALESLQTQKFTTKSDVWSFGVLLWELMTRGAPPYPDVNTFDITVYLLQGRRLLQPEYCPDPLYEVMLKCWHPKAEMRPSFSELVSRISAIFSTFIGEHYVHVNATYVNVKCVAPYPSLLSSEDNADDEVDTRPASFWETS

The target in the first experiment is T1, monkey MET on fasMET-NIH3T3 cells (monkey (Macaca fascicularis)). As to the kind of experiment: flow cytometry on fasMET-NIH3T3 cells.
T1 sequence (chain, as listed by the source limits assumed): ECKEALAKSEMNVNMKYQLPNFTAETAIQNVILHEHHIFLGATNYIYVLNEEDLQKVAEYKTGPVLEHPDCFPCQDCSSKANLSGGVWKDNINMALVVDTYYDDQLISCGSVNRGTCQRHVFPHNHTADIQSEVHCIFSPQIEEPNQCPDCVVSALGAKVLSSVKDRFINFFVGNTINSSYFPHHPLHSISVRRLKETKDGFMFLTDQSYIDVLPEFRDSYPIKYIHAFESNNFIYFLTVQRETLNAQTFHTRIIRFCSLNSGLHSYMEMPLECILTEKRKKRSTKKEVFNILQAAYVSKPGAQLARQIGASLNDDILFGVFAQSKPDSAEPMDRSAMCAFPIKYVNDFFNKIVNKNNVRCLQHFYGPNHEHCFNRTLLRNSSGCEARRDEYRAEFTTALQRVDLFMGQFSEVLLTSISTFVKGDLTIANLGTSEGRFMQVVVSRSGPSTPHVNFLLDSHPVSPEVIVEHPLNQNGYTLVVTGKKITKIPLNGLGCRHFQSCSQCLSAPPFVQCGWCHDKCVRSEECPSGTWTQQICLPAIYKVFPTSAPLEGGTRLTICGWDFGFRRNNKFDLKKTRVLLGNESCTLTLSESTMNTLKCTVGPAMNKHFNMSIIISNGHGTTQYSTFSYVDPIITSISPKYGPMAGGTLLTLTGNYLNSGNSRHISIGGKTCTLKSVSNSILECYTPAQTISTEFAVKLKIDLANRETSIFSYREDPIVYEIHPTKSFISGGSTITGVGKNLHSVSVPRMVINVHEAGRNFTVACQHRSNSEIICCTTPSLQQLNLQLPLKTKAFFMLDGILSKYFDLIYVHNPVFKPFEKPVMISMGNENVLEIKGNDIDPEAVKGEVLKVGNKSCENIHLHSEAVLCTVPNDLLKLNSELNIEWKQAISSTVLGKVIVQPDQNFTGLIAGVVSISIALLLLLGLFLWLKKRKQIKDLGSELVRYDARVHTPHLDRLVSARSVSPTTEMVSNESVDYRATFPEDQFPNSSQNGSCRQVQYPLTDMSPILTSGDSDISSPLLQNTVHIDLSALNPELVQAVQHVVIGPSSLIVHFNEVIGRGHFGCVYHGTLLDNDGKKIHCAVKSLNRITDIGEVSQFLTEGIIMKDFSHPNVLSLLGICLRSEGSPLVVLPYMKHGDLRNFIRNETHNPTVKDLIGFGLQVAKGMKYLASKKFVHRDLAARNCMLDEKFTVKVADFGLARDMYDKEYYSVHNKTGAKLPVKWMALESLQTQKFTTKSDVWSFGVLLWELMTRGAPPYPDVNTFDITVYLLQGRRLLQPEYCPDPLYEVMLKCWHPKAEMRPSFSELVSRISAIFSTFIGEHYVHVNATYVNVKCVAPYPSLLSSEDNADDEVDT
B1: the “Percentage of Positive Cells” value stood at 71.1%.

On to B2, for which the “Percentage of Positive Cells” value came out at 48.8%.

With B3, the “Percentage of Positive Cells” value amounted to 21%.

A further experiment concerns the target T2, dog MET on dMET-NIH3T3 cells (dog (Canis lupus, printed 'Cans lupus'), UniProt Q75ZY9 25-1382).
T2 construct: also called dMET-NIH13T3 [sic]
The experiment can be described thus: flow cytometry on dMET-NIH3T3 cells. A general note: In flow cytometry, cells or beads pass a laser one at a time.
As for B4, the “Percentage of Positive Cells” value was found to be 73.2%.

Take B5: the “Percentage of Positive Cells” value was 74.7%.

For B6, the “Percentage of Positive Cells” value was 78.8%.

Another experiment addresses T3, His-tagged dog MET (dog, UniProt Q75ZY9 25-933, limits assumed).
T3 construct: Bought protein; also called dMET-His; not shown: His tag
As to the kind of experiment: SPR (Biacore 8K), antibody on Protein A chip. In general terms: Surface plasmon resonance follows binding to a sensor surface in real time, without labels.
Take B7: the binding result is recorded as “no binding”.

In another experiment the target is T4, His-tagged human MET protein (human, UniProt P08581 25-932).
T4 construct: Bought protein; also called hMET-His; not shown: His tag
T4 sequence (P08581 25-932 limits assumed): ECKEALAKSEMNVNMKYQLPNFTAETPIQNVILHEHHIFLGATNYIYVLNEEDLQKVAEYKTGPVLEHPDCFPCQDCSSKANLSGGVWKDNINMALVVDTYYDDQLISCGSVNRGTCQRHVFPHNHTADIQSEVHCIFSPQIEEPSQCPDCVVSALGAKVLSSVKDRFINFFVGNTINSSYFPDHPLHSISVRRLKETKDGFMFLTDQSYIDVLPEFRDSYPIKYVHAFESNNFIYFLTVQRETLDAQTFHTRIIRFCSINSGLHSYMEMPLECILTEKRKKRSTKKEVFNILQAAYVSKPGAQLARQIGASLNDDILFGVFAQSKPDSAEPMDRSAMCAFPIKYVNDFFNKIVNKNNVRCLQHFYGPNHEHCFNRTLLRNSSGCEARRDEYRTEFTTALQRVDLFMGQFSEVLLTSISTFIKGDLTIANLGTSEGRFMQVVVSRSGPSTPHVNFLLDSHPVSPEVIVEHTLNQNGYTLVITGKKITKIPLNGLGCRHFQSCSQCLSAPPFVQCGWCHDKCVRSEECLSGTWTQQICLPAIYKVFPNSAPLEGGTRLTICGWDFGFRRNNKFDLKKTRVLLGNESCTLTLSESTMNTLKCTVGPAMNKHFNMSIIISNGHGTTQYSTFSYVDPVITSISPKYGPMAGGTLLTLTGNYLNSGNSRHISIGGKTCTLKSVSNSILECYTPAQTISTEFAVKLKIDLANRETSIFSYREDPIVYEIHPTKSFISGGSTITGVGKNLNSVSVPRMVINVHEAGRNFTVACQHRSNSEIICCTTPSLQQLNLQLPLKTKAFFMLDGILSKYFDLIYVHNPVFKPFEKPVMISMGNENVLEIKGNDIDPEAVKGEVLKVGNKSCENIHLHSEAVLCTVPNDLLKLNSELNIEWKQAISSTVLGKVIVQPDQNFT
As to the kind of experiment: SPR (Biacore 8K), antibody on Protein A chip.
Regarding B1, the affinity, expressed as Kd, was 54.2 nM; the koff amounted to 0.00313 s⁻¹; the on-rate constant (kon) amounted to 57700 M⁻¹ s⁻¹.

B2 displayed a Kd of 30.1 nM, a koff of 0.000698 s⁻¹ and a kon of 23200 M⁻¹ s⁻¹.

The molecule B3 showed a Kd of 31.9 nM, a koff of 0.00605 s⁻¹ and a kon of 189000 M⁻¹ s⁻¹.

Another experiment addresses T1, monkey MET on fasMET-NIH3T3 cells. The experiment can be described thus: flow cytometry on fasMET-NIH3T3 cells. This is another data set of the same source.
As for B8, the “Percentage of Positive Cells” value was 71.4%.

Take B9: the “Percentage of Positive Cells” value was determined as 67.8%.

Turning to B4, the “Percentage of Positive Cells” value is 49.2%.

For B5, the “Percentage of Positive Cells” value was 63.4%.

Consider B6, for which the “Percentage of Positive Cells” value was determined as 62.2%.

The next experiment addresses T4, His-tagged human MET protein. The experiment can be described thus: SPR (Biacore 8K), antibody on Protein A chip. The source holds these as a separate data set.
B8 showed a Kd of 60.6 nM, a koff of 0.00237 s⁻¹ and a kon of 39100 M⁻¹ s⁻¹.

The molecule B9 showed a Kd of 19.9 nM, a koff of 0.00138 s⁻¹ and a kon of 69700 M⁻¹ s⁻¹.

For the molecule B4, binding was put at a Kd of 10.1 nM, the koff came out at 0.000634 s⁻¹ and the kon stood at 62500 M⁻¹ s⁻¹.

The molecule B5 yielded a Kd of 11.6 nM, a koff of 0.000684 s⁻¹ and a kon of 59100 M⁻¹ s⁻¹.

With B6, the Kd was 13.1 nM, the koff amounted to 0.000683 s⁻¹ and the kon was determined as 52200 M⁻¹ s⁻¹.

For the next experiment, the target named is T3, His-tagged dog MET. The experiment can be described thus: SPR (Biacore 8K), antibody on Protein A chip. This is another data set of the same source.
For the molecule B4, the Kd was found to be 253 nM, the koff was 0.0175 s⁻¹ and the kon is 69000 M⁻¹ s⁻¹.

Take B5: the Kd was 62.3 nM, the koff stood at 0.00343 s⁻¹ and the kon came out at 55000 M⁻¹ s⁻¹.

B6: the affinity, expressed as Kd, was 50 nM; the koff is 0.00384 s⁻¹; the kon amounted to 76900 M⁻¹ s⁻¹.

For a further experiment, the target named is T5, human MET on SNU-5 cells (human, UniProt P08581 25-1390).
T5 construct: whole, on cells; Endogenous MET of SNU-5 cells
T5 sequence (P08581 25-1390): as the sequence (P08581 25-1390 limits assumed) above
The experiment can be described thus: flow cytometry on SNU-5 cells.
With B1, the “Percentage of Positive Cells” value was 97.1%.

Turning to B2, the “Percentage of Positive Cells” value came out at 99.3%.

For B3, the “Percentage of Positive Cells” value came to 98.7%.

For the molecule B10, the “Percentage of Positive Cells” value is 95.6%.

In the next experiment the target is T1, monkey MET on fasMET-NIH3T3 cells. The experiment can be described thus: flow cytometry on fasMET-NIH3T3 cells (0.18% positive cells).
With B10, the binding result is “no binding”.

The target of the next experiment is T2, dog MET on dMET-NIH3T3 cells. As to the kind of experiment: flow cytometry on dMET-NIH3T3 cells (5.33% positive cells).
B8: the binding result is reported as “no binding”.

The target is the same in a further experiment. As to the kind of experiment: flow cytometry on dMET-NIH3T3 cells (1.44% positive cells).
Consider B9, for which the binding result is “no binding”.

The next experiment has as its target human MET on hMET-NIH3T3 cells (human, UniProt P08581 25-1390). As to the kind of experiment: flow cytometry on hMET-NIH3T3 cells.
On to B8, for which the “Percentage of Positive Cells” value was determined as 99.8%.

For the molecule B9, the “Percentage of Positive Cells” value was 99.8%.

As for B4, the “Percentage of Positive Cells” value was 99.2%.

As to B5, the “Percentage of Positive Cells” value is 99.6%.

On to B6, for which the “Percentage of Positive Cells” value was found to be 99.6%.

The target in another experiment is T4, His-tagged human MET protein. As to the kind of experiment: SPR (Biacore 8K), Protein A chip.
B1 showed a Kd of 55.6 nM, an off-rate (koff) of 0.0022 s⁻¹ and a kon of 39600 M⁻¹ s⁻¹.

In turn, B3 showed a Kd of 63.6 nM, a koff of 0.00362 s⁻¹ and a kon of 57000 M⁻¹ s⁻¹.

As to B7, the Kd was determined as 0.972 nM, the koff came to 0.0001 s⁻¹ and the kon came to 103000 M⁻¹ s⁻¹.

The next experiment deals with T6, His-tagged human EGFR protein (human, UniProt P00533 25-645).
T6 construct: Bought protein; also called hEGFR-His; not shown: His tag
As to the kind of experiment: SPR (Biacore 8K), Protein A chip.
As to B1, the binding result is “no binding (tested: antigen up to 400 nM)”.

Regarding B3, the binding result is given as “no binding (tested: antigen up to 400 nM)”.

On to B7, for which the binding result is listed as “no binding (tested: antigen up to 400 nM)”.

For the next experiment, the target named is T7, His-tagged monkey EGFR protein (monkey (crab-eating macaque; Macaca …, UniProt A0A2K5WK39 25-645).
T7 construct: also called fasEGFR-His; not shown: His tag
The experiment can be described thus: SPR (Biacore 8K), Protein A chip.
On to B1, for which the binding result is “no binding (tested: antigen up to 400 nM)”.

For the molecule B3, the binding result was “no binding (tested: antigen up to 400 nM)”.

As for B7, the binding result is recorded as “no binding (tested: antigen up to 400 nM)”.

The next experiment addresses T3, His-tagged dog MET. As to the kind of experiment: SPR (Biacore 8K), antibody on Protein A chip; legend: - means no binding.
In the case of B8, the binding result is listed as “no binding”.

B9: the binding result is “no binding”.

Broadly, the Kd is a measure of binding affinity in units of concentration. What is called koff is the first-order rate constant of dissociation. As a reminder, the kon is the second-order rate constant of association.
